How the values were obtained:
[1] = biological target: T1, amphyphisin SH3 (AMPH_HUMAN), P49418; assay: SPOT array
T1 chain: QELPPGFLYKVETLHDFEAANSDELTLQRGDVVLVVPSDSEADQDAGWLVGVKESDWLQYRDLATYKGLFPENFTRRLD

[2] = biological target: endophilin SH3 (SH3G2_HUMAN), Q99962; assay: SPOT array

With PMRLPRRPLRAFES [O14545 178-191] the normalised SPOT signal, Boehringer light units (BLU); mean over the file's lines of this peptide [1] was 5210 and the normalised SPOT signal, Boehringer light units (BLU); mean over the file's lines of this peptide [2] was 1200.

PMVPPRRPWTLVNW [Q9NRZ5 298-311] was tested, and the normalised SPOT signal, Boehringer light units (BLU); mean over the file's lines of this peptide [1] was 2870 and the normalised SPOT signal, Boehringer light units (BLU); mean over the file's lines of this peptide [2] was 648.

PNATPRRPLQELRR [Q9HCF2 2-15] gave a normalised SPOT signal, Boehringer light units (BLU); mean over the file's lines of this peptide [1] of 405 and a normalised SPOT signal, Boehringer light units (BLU); mean over the file's lines of this peptide [2] of 1570.

PNIKISRPLKVLLT [Q9NPB9 231-244] was tested, and the normalised SPOT signal, Boehringer light units (BLU); mean over the file's lines of this peptide [1] was 91.3 and the normalised SPOT signal, Boehringer light units (BLU); mean over the file's lines of this peptide [2] was 155.

PNLIPRRPSPYEKT [O95450 1177-1190] showed a normalised SPOT signal, Boehringer light units (BLU); mean over the file's lines of this peptide [1] of 131 and a normalised SPOT signal, Boehringer light units (BLU); mean over the file's lines of this peptide [2] of 398.

Binder ASAPPRRPRPPPPS [Q9UEF7 3-16] has a normalised SPOT signal, Boehringer light units (BLU); mean over the file's lines of this peptide [1] of 230 and a normalised SPOT signal, Boehringer light units (BLU); mean over the file's lines of this peptide [2] of 9160.

Work on PNLLPHRPPLLVFP [Q9Y6X6 669-683] yielded a normalised SPOT signal, Boehringer light units (BLU); mean over the file's lines of this peptide [1] of 70.2 and a normalised SPOT signal, Boehringer light units (BLU); mean over the file's lines of this peptide [2] of 191.

For PNYDLRRPHQYLHP [O94991 899-912], the normalised SPOT signal, Boehringer light units (BLU); mean over the file's lines of this peptide [1] was 24.6 and the normalised SPOT signal, Boehringer light units (BLU); mean over the file's lines of this peptide [2] was 0.

PPALPPKPPKAKPA [O00459 298-312] was tested, and the normalised SPOT signal, Boehringer light units (BLU); mean over the file's lines of this peptide [1] was 124 and the normalised SPOT signal, Boehringer light units (BLU); mean over the file's lines of this peptide [2] was 4320.

Binder PPALPPKPPKPMTS [Q92569 33-47] has a normalised SPOT signal, Boehringer light units (BLU); mean over the file's lines of this peptide [1] of 88.3 and a normalised SPOT signal, Boehringer light units (BLU); mean over the file's lines of this peptide [2] of 2510.

PPALPPKPPKPTTV [AAH30815 33-47] showed a normalised SPOT signal, Boehringer light units (BLU); mean over the file's lines of this peptide [1] of 77.9 and a normalised SPOT signal, Boehringer light units (BLU); mean over the file's lines of this peptide [2] of 3470.

PPAPLRRPLAVLHA [Q96BU4 174-187] showed a normalised SPOT signal, Boehringer light units (BLU); mean over the file's lines of this peptide [1] of 315 and a normalised SPOT signal, Boehringer light units (BLU); mean over the file's lines of this peptide [2] of 453.

PPAPPLRPPGPPTG [Q9Y2W2 415-429] showed a normalised SPOT signal, Boehringer light units (BLU); mean over the file's lines of this peptide [1] of 356 and a normalised SPOT signal, Boehringer light units (BLU); mean over the file's lines of this peptide [2] of 3740.

Work on PPAPPTRPPRRSDS [P35443 278-292] yielded a normalised SPOT signal, Boehringer light units (BLU); mean over the file's lines of this peptide [1] of 20500 and a normalised SPOT signal, Boehringer light units (BLU); mean over the file's lines of this peptide [2] of 12100.

Binder PPARPPRPPYPPRR [AAH27972 518-532] has a normalised SPOT signal, Boehringer light units (BLU); mean over the file's lines of this peptide [1] of 16000 and a normalised SPOT signal, Boehringer light units (BLU); mean over the file's lines of this peptide [2] of 20000.

In the case of PPASPRRPRSFKSK [Q9HCK6 1105-1118], the normalised SPOT signal, Boehringer light units (BLU); mean over the file's lines of this peptide [1] is reported as 58.1 and the normalised SPOT signal, Boehringer light units (BLU); mean over the file's lines of this peptide [2] is reported as 272.

ASAPPRRPRPPPQS [Q9UEI9 3-16] was tested, and the normalised SPOT signal, Boehringer light units (BLU); mean over the file's lines of this peptide [1] was 914 and the normalised SPOT signal, Boehringer light units (BLU); mean over the file's lines of this peptide [2] was 1320.

Work on PPEKPPRPPRPLHL [Q8TEL4 110-124] yielded a normalised SPOT signal, Boehringer light units (BLU); mean over the file's lines of this peptide [1] of 14400 and a normalised SPOT signal, Boehringer light units (BLU); mean over the file's lines of this peptide [2] of 29300.

With PPGKPERPPPQGGD [P81489 133-147] the normalised SPOT signal, Boehringer light units (BLU); mean over the file's lines of this peptide [1] was 61.4 and the normalised SPOT signal, Boehringer light units (BLU); mean over the file's lines of this peptide [2] was 312.

In the case of PPGKPERPPPQGGN [P10163 115-129], the normalised SPOT signal, Boehringer light units (BLU); mean over the file's lines of this peptide [1] is reported as 59.4 and the normalised SPOT signal, Boehringer light units (BLU); mean over the file's lines of this peptide [2] is reported as 760.

PPGLPPRPPLSSSS [Q13470 532-546] was tested, and the normalised SPOT signal, Boehringer light units (BLU); mean over the file's lines of this peptide [1] was 433 and the normalised SPOT signal, Boehringer light units (BLU); mean over the file's lines of this peptide [2] was 5470.

For PPGPPTRPPGPWRW [O15354 108-122], the normalised SPOT signal, Boehringer light units (BLU); mean over the file's lines of this peptide [1] was 1320 and the normalised SPOT signal, Boehringer light units (BLU); mean over the file's lines of this peptide [2] was 9250.

PPHLPARPPGGWSR [BAC04291 42-56] gave a normalised SPOT signal, Boehringer light units (BLU); mean over the file's lines of this peptide [1] of 1280 and a normalised SPOT signal, Boehringer light units (BLU); mean over the file's lines of this peptide [2] of 2410.

PPKRPGRPPKNRES [P55201 903-917] was tested, and the normalised SPOT signal, Boehringer light units (BLU); mean over the file's lines of this peptide [1] was 7550 and the normalised SPOT signal, Boehringer light units (BLU); mean over the file's lines of this peptide [2] was 13900.

PPKWIRRPTGVSFA [Q9NQW1 380-393] showed a normalised SPOT signal, Boehringer light units (BLU); mean over the file's lines of this peptide [1] of 42.3 and a normalised SPOT signal, Boehringer light units (BLU); mean over the file's lines of this peptide [2] of 433.

PPKWIRRPVGASFS [O94979 386-399] gave a normalised SPOT signal, Boehringer light units (BLU); mean over the file's lines of this peptide [1] of 41.1 and a normalised SPOT signal, Boehringer light units (BLU); mean over the file's lines of this peptide [2] of 642.

Binder PPLEPARPNRHPES [Q9H293 60-73] has a normalised SPOT signal, Boehringer light units (BLU); mean over the file's lines of this peptide [1] of 282 and a normalised SPOT signal, Boehringer light units (BLU); mean over the file's lines of this peptide [2] of 0.

Binder ASATLGRPPRIPEP [Q9H0P6 178-191] has a normalised SPOT signal, Boehringer light units (BLU); mean over the file's lines of this peptide [1] of 139 and a normalised SPOT signal, Boehringer light units (BLU); mean over the file's lines of this peptide [2] of 65.5.

PPLLPGRPARDRGP [Q9Y6J0 1777-1790] gave a normalised SPOT signal, Boehringer light units (BLU); mean over the file's lines of this peptide [1] of 6220 and a normalised SPOT signal, Boehringer light units (BLU); mean over the file's lines of this peptide [2] of 27100.

Work on PPLLPPRPPQGLEP [Q8TEH3 833-847] yielded a normalised SPOT signal, Boehringer light units (BLU); mean over the file's lines of this peptide [1] of 107 and a normalised SPOT signal, Boehringer light units (BLU); mean over the file's lines of this peptide [2] of 335.

With PPLLPRRPPPRVPA [O15056 1170-1184] the normalised SPOT signal, Boehringer light units (BLU); mean over the file's lines of this peptide [1] was 4490 and the normalised SPOT signal, Boehringer light units (BLU); mean over the file's lines of this peptide [2] was 7190.

For PPLPPPRPPRPPSP [Q9UPS6 160-174], the normalised SPOT signal, Boehringer light units (BLU); mean over the file's lines of this peptide [1] was 5630 and the normalised SPOT signal, Boehringer light units (BLU); mean over the file's lines of this peptide [2] was 8000.

Work on PPPIPKKPPKGKFP [Q9P1A6 952-966] yielded a normalised SPOT signal, Boehringer light units (BLU); mean over the file's lines of this peptide [1] of 64.7 and a normalised SPOT signal, Boehringer light units (BLU); mean over the file's lines of this peptide [2] of 3890.

AARTLRRPKALDSG [Q96RY6 273-286] showed a normalised SPOT signal, Boehringer light units (BLU); mean over the file's lines of this peptide [1] of 7.6 and a normalised SPOT signal, Boehringer light units (BLU); mean over the file's lines of this peptide [2] of 0.

For PPPKPNRPPNVDLT [O15117 355-369], the normalised SPOT signal, Boehringer light units (BLU); mean over the file's lines of this peptide [1] was 316 and the normalised SPOT signal, Boehringer light units (BLU); mean over the file's lines of this peptide [2] was 2890.

Work on PPPLPNKPPPEDYY [Q8TED9 137-151] yielded a normalised SPOT signal, Boehringer light units (BLU); mean over the file's lines of this peptide [1] of 42.3 and a normalised SPOT signal, Boehringer light units (BLU); mean over the file's lines of this peptide [2] of 92.7.

Work on PPPLPQRPPPRLPP [Q9H9H4 263-277] yielded a normalised SPOT signal, Boehringer light units (BLU); mean over the file's lines of this peptide [1] of 2170 and a normalised SPOT signal, Boehringer light units (BLU); mean over the file's lines of this peptide [2] of 2770.

For PPPLPRRPSTPRQG [O75412 1048-1061], the normalised SPOT signal, Boehringer light units (BLU); mean over the file's lines of this peptide [1] was 1930 and the normalised SPOT signal, Boehringer light units (BLU); mean over the file's lines of this peptide [2] was 9490.

PPPPIPRPAKLQAA [Q9HCG4 308-321] showed a normalised SPOT signal, Boehringer light units (BLU); mean over the file's lines of this peptide [1] of 91 and a normalised SPOT signal, Boehringer light units (BLU); mean over the file's lines of this peptide [2] of 102.

With ASFQPARPHRARHP [O95612 13-26] the normalised SPOT signal, Boehringer light units (BLU); mean over the file's lines of this peptide [1] was 3200 and the normalised SPOT signal, Boehringer light units (BLU); mean over the file's lines of this peptide [2] was 649.

PPPPPARPPARRAS [Q9H1V5 1094-1108] gave a normalised SPOT signal, Boehringer light units (BLU); mean over the file's lines of this peptide [1] of 11500 and a normalised SPOT signal, Boehringer light units (BLU); mean over the file's lines of this peptide [2] of 13100.

For PPPPPERPPPIPPD [Q13191 554-568], the normalised SPOT signal, Boehringer light units (BLU); mean over the file's lines of this peptide [1] was 29.1 and the normalised SPOT signal, Boehringer light units (BLU); mean over the file's lines of this peptide [2] was 74.8.
